Positions count from the first letter of the chain named. “And” between values parts separate entries of the source, which are not always exact repeats. Equal values may be shown once.

What is called IC50 is the concentration needed to halve the response being measured. In general, EC50 refers to the concentration that produces a half-maximal response. The term Kd denotes the free concentration of one partner at which half of the binding sites on the other are occupied at equilibrium, for simple one-to-one binding. What is called koff is the rate constant with which the complex falls apart. The term kon denotes a measure of how fast the partners come together.

The chains are these.
B1: humanized anti-human TIGIT monoclonal antibody P03479 (antibody, V domains shown)
VH: EVQVVESGGGLVKPGGSLRLSCAASGFTFSTYAMSWVRQAPGKGLEWVAEISSGGSHTFYADTVKGRFTISRDNAKNTLYLQMNSLRAEDTAVYYCARKTLDYYALDYWGQGTTVTVSS
VL: DVQITQSPSYLSASVGDRVTINCRASKSISKYLAWYQQKPGKAPKLLIYSGSRLQSGIPSRFSGSGYGTDFTLTISSLQPEDFATYYCQQHNEYPWTFGGGTKLEIK
B2: humanized anti-human TIGIT monoclonal antibody P04663 (antibody, V domains shown)
VH: B1 VH with G42E, K43Q, G44R
VL: B1 VL with Y10S, L11V, I58V, Y67S
B3: humanized anti-human TIGIT monoclonal antibody P04662 (antibody, V domains shown)
VH: B1 VH with G42E, K43Q, G44R, A61S, K65T
VL: B1 VL with Y10S, L11V, I58V, Y67S
B4: anti-human TIGIT mouse monoclonal antibody 7103-08 (antibody, V domains shown)
VH: EVQLQESGPELVKPGASVKISCKASGYSFTGYYMLWVKQSHVKSLEWIGRINPYNGATTYNQNFKDKASLTVNKSSSTAYMELHSLTSEDSAVYYCARWFGDFDFWGQGTTLTVSS
VL: DIQMTQSPSSLSASLGERVSLTCRASQEISGYLSWLQQKPDGTIKRLIYATSTLDSGVPKRFSGSRSGSDYSLTISSLESEDFADYYCLQYASYPFTFGSGTKLEIK
notes: also called 49F8-1-2
B5: anti-human TIGIT mouse monoclonal antibody 7103-05 (antibody, V domains shown)
VH: EVQLQQSGPALVKPGASVKISCKTSEYTFTEYTMYWVKQSHGKSLEWIGGINPNNGGTRYNQKFKGKATLTVDKSSSTAYMELRSLTSEDSAVYYCARGGHYDYGFAYWGQGTLVTVSA
VL: DIVMTQSHKFMSTSVGDRVSITCKASQDVKTAVAWYQQKPGQSPKVLIYSPSYRYTGVPDRFTGSGSGTDFTFTISSVQAEDLAVYYCQQHYSTPWTFGGGTKLKSK
notes: also called 41D7-2-1
B6: anti-human TIGIT mouse monoclonal antibody 7103-02 (antibody, V domains shown)
VH: EVQLQQSGPELVKPGASVKMSCKASGYTITSYVMHWVKQKPGQGLEWIGYINPYNDGTKYNEKFKGKATLTSDKSSSTAYMELSSLTSEDSAVYYCARWNPYYYAMDYWGQGTSVTVSS
VL: EVVLTQSPAITAASLGQKVTITCSANSSARYVHWYQQKSGTSPKPWIYEISKLASGVPARFSGSGSGTSYSLTISSMGAEDAAIYYCQQWNYPLITFGAGTKLEIK
notes: also called 37C6-1-1
B7: humanized anti-human TIGIT monoclonal antibody P03493 (antibody, V domains shown)
VH: QVQLVQSGAEVKKPGASVKVSCKASGYTFISYNIYWVRQAPGQGLEWMGGVNPSNGNTNFNENFQGRVTMTVDTSISTAYMELSRLRSDDTAVYYCTRGNYYGYEFAYWGQGTTVTVSS
VL: DIQMTQSPSSLSASVGDRVTITCKASQHVSTAVAWYQQKPGKAPKLLIYSPSYRYTGVPSRFSGSGSGTDFTFTISSLQPEDIATYYCQQHYSTPWTFGGGTKLEIK
B8: humanized anti-human TIGIT monoclonal antibody P03492 (antibody, V domains shown)
VH: B7 VH with M48I, Q65K, M70L
VL: B7 VL
B9: humanized anti-human TIGIT monoclonal antibody P04665 (antibody, V domains shown)
VH: B1 VH with G42E, K43Q, G44R, A61S, K65T
VL: B1 VL with V2I, I4M, Y10S, L11V, D17E, R18T, V19I, N22T, I58V, Y67S
B10: humanized anti-human TIGIT monoclonal antibody P03487 (antibody, V domains shown)
VH: B7 VH with M48I, Q65K, G66S, M70L, T74K
VL: B7 VL with L11M, L78V
B11: humanized anti-human TIGIT monoclonal antibody P03490 (antibody, V domains shown)
VH: B7 VH with V20L, M48I, Q65K, G66S, V68A, M70L, T74K, I76S, Y95F
VL: B7 VL
B12: humanized anti-human TIGIT monoclonal antibody P03486 (antibody, V domains shown)
VH: B7 VH with V20L, M48I, Q65K, G66S, V68A, M70L, T74K, I76S, Y95F
VL: B7 VL with L11M, L78V
B13: humanized anti-human TIGIT monoclonal antibody P03491 (antibody, V domains shown)
VH: B7 VH with M48I, Q65K, G66S, M70L, T74K
VL: B7 VL

One test concerns the target T1, recombinant human TIGIT (Human TIGIT His, Sino Biological, 10917-H08H) (human, UniProt Q495A1 22-138).
T1 construct: range 1-138; bought; also called hTIGIT
T1 sequence (looked up): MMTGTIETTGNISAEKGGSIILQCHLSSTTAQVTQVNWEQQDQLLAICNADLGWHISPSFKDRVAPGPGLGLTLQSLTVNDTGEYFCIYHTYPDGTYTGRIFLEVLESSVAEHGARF
The test is described as follows: competition ELISA, human TIGIT (His) coated, antibody titrated against fixed CD155, bound CD155 detected, OD450/655.
In the case of B1, the IC50 was 0.109 µg/mL and 0.728 nM.

For the molecule B2, the IC50 stood at 0.089 µg/mL.

As for B3, the IC50 came out at 0.094 µg/mL.

For the next test, the target named is T2, recombinant cynomolgus monkey TIGIT (cynomolgus monkey, UniProt A0A7N9I9V4 89-209).
T2 construct: construct not described; also called cynomolgus TIGIT
T2 sequence (A0A7N9I9V4 entry or part of it): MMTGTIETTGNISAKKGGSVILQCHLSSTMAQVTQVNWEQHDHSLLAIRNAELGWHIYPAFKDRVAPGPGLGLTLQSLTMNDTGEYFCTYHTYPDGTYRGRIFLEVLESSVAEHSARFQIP
Put plainly: ELISA, recombinant cynomolgus TIGIT coated, anti-mouse Fab secondary antibody, TMB, OD450/655nm. How it is done:
(§1) The cynomolgus monkey or mouse TIGIT antigen of was coated with the same method as above, the anti-human TIGIT mouse monoclonal antibody was diluted in gradient, and then the anti-mouse Fab secondary antibody was added (Jackson Immuno Research, 515-035-072) for TMB development. ELISA was used to detect the binding of 8 mouse monoclonal antibodies to recombinant cynomolgus monkey TIGIT.
On the technique in general: In an ELISA, binding on a coated surface is turned into a signal by an enzyme label.
In the case of B4, the binding result was “no binding”.

On to B5, for which the binding result is “no binding”.

Take B6: the binding result is reported as “no binding”.

The next test concerns the target T3, full-length human TIGIT expressed on CHO-K cell membrane (CHO-K-TIGIT) (human, UniProt Q495A1 22-244).
T3 construct: whole, on cells; also called CHO-TIGIT; membrane TIGIT
T3 sequence (looked up): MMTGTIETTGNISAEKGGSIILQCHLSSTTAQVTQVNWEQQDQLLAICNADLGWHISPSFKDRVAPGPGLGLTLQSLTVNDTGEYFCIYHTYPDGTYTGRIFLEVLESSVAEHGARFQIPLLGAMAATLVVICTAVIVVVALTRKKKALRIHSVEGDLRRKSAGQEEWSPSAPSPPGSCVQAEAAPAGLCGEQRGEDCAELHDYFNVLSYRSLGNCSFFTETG
Put plainly: flow cytometry, CHO-TIGIT cells. Background: A flow cytometer gives signals particle by particle.
The molecule B1 came in with an EC50 of 0.963 nM.

In turn, B7 gave an EC50 of 0.557 nM.

B8 registered an EC50 of 0.437 nM.

In a further test the target is T1, recombinant human TIGIT (Human TIGIT …). The test is described as follows: BLI, antibody captured on anti-human Fc probe, TIGIT-His in solution. In general terms: Biolayer interferometry detects binding as a change in optical thickness at a sensor tip.
In the case of B1, the Kd was determined as 8.43 nM, the dissociation rate constant (koff) turned out to be 0.00495 s⁻¹ and the kon was 587000 M⁻¹ s⁻¹.

With B2, the Kd is 2 nM, the koff is 0.00307 s⁻¹ and the kon was determined as 1.53e+06 M⁻¹ s⁻¹.

As to B3, the Kd came to 2.4 nM, the koff is 0.0031 s⁻¹ and the kon stood at 1.29e+06 M⁻¹ s⁻¹.

For B9, the Kd is 5.58 nM, the koff was found to be 0.00583 s⁻¹ and the kon turned out to be 1.04e+06 M⁻¹ s⁻¹.

A further test deals with T4, mouse TIGIT antigen (mouse, UniProt P86176 29-148, limits assumed).
T4 construct: construct not described; also called murine TIGIT
T4 sequence (looked up): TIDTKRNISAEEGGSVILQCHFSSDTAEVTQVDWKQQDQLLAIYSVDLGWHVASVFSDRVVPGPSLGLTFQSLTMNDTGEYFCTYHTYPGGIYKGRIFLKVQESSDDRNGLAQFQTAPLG
The test is described as follows: ELISA, coated mouse TIGIT. How it is done: as §1
Regarding B4, the binding result is “no binding”.

In the case of B5, the binding result is “no binding”.

As for B6, the binding result is given as “no binding”.

The target of another test is T1, recombinant human TIGIT (Human TIGIT …). The test is described as follows: ELISA, recombinant human TIGIT (His) coated, anti-human-Fc-AP, OD405/490. How it is done: (§2) Antigen hTIGIT (Human TIGIT (His), Sino Biological, 10917-H08H) was diluted into 1 μg/mL with a NaHCO₃ solution of pH 9.6, 50 μl per well was added to a 96-well ELISA plate, and placed overnight in refrigerator at 4° C.
(§3) In order to determine whether the humanized TIGIT monoclonal antibody of the present disclosure could bind to the recombinant human TIGIT protein, in vitro testing was performed. Murine antibodies and Tiragolumab (Tira) were used as positive controls. The experimental method was the same as in Example 3.1.
In the case of B2, the EC50 is 0.0049 µg/mL and 0.033 nM.

For B3, the EC50 is 0.0063 µg/mL and 0.0419 nM.

As to B9, the EC50 is 0.0136 µg/mL and 0.0913 nM.

A further test has the same target. Put plainly: ELISA, coated human TIGIT-His.
In the case of B4, the EC50 is 0.0372 nM.

As for B5, the EC50 worked out at 0.0571 nM.

Take B1: the EC50 was 0.0858 nM.

With B10, the EC50 came to 0.532 nM.

As to B7, the EC50 turned out to be 0.444 nM.

Regarding B11, the EC50 was 0.501 nM.

As for B12, the EC50 came to 0.511 nM.

With B13, the EC50 is 0.471 nM.

As for B8, the EC50 stood at 0.463 nM.

As for B6, the EC50 came out at 0.0987 nM.

For the next test the target is unchanged. The test is described as follows: competition ELISA on recombinant human TIGIT, CD155 as competitor.
As to B1, the IC50 worked out at 0.714 nM.

B2: the concentration for half-maximal inhibition (IC50) stood at 0.594 nM.

Regarding B3, the IC50 turned out to be 0.63 nM.

Another test has the same target. Put plainly: ELISA, recombinant human TIGIT (His) coated, anti-human-Fc-AP, OD405/490. This is another data set of the same source. How it is done: as §2, §3
For the molecule B10, the EC50 was found to be 0.0794 µg/mL.

For the molecule B7, the EC50 was 0.0662 µg/mL.

For B11, the EC50 came out at 0.0749 µg/mL.

As to B12, the EC50 was 0.0763 µg/mL.

Turning to B13, the EC50 was found to be 0.0702 µg/mL.

Regarding B8, the EC50 amounted to 0.0692 µg/mL.

The next test shares this target. Put plainly: BLI, antibody captured on anti-human Fc probe, TIGIT-His in solution. This is another data set of the same source.
B10: the Kd is 1.43 nM, the koff amounted to 0.000804 s⁻¹ and the kon was found to be 562000 M⁻¹ s⁻¹.

For B7, the Kd was 1.12 nM, the koff amounted to 0.000513 s⁻¹ and the kon came out at 458000 M⁻¹ s⁻¹.

On to B11, for which the Kd came out at 1.27 nM, the koff was found to be 0.000664 s⁻¹ and the kon came out at 522000 M⁻¹ s⁻¹.

Consider B12, for which the Kd was found to be 1.14 nM, the koff amounted to 0.000584 s⁻¹ and the kon turned out to be 511000 M⁻¹ s⁻¹.

With B13, the equilibrium dissociation constant (Kd) came to 1.88 nM, the koff is 0.00095 s⁻¹ and the kon turned out to be 506000 M⁻¹ s⁻¹.

Turning to B8, the Kd was found to be 1.49 nM, the koff was found to be 0.000781 s⁻¹ and the kon was 525000 M⁻¹ s⁻¹.

For a further test the target is unchanged. Put plainly: competition ELISA, coated TIGIT-His, CD155-Fc as competitor. How it is done:
In order to evaluate the competition between the anti-human TIGIT mouse monoclonal antibody and CD155 (Human CD155 (Fc Tag): Sino Biological, 10109-H02H) for binding to recombinant human TIGIT (Human TIGIT(His), Sino Biological, 10917-H08H), ELISA detection was performed, and the specific steps were as follows:
Primary antibody incubation: the plate was washed twice with PBS (250 μl/well), and patched dry. 6 μg/ml of CD155 was respectively diluted in a binding solution and added into a 96-well dilution plate at 60 μl/well. Then the screened hybridoma antibody was diluted with the binding solution, (the highest concentration was 30 μg/ml), and diluted to 3 times of concentration, and added into the corresponding dilution plate above at 60 μl/well. After mixing well, the sample was added to the coated 96-well ELISA plate at 100 μl/well. The plate was sealed with a sealing film and placed at 37° C. for 1.5 hours.
Secondary antibody incubation: the blocking solution was discarded, the plate was washed with 250 μl PBST for 3 times, and patched dry.
Take B4: the IC50 was 0.0857 nM.

Turning to B5, the IC50 is 0.169 nM.

Consider B6, for which the IC50 is 0.13 nM.

Values taken from US20240417462A1 (SHANGHAI CELGEN BIO PHARMACEUTICAL, published 2024).
